Patent publication US20230331823A1 (HENRY M JACKSON FOUNDATION FOR THE ADVANCEMENT OF MILITARY …, published 2023)
Numbering of substitutions follows the chain as printed. Like-named read-outs stand apart in the source and are kept apart here.

Legend:
[1] = target: T1, SARS-CoV-2 WA-1 Spike on pseudovirions (SARS-CoV-2, UniProt P0DTC2 14-1255); assay: cell-based or functional assay
SARS-CoV-2 NTD WA-1 = target: T2, SARS-CoV-2 NTD WA-1 (SARS-CoV-2, UniProt P0DTC2 14-303); assay: BLI, ShAb-Fc on AHC probe, NTD analyte
T2 construct: domain: NTD

[2] = target: T1, SARS-CoV-2 WA-1 Spike on pseudovirions; assay: cell-based or functional assay; remark: listed apart in the source
[3] = target: SARS-CoV-2 RBD (pCoV08, RBD-His6) (SARS-CoV-2 (Wuhan-Hu-1), UniProt P0DTC2 331-527); assay: Table 1, column Specificity

B1: ShAb01H06K (ShAb01Hole-06Knob) (bispecific antibody, V domains shown)
V domain 1: ARVDQTPRSVTKETGESLTINCVLRDSNCALSSTHWYRKKSGSTNEERILQGRRYVETVNSGSKSFSLRINDLRVEDSGTYRCKVYWGNSWQDKFCPGLGSYEYGDGTAVTVNS
V domain 2: ARVDQTPRSVTKETGESLTINCVLRDASYALGSTCWYRKKSGSTNEESISKGGRYVETVNSGSKSFSLRINDLTVEDGGTYRCGVGRGLGVGCDYPLCSYSYAACGDGTAVTVNS
- pseudovirus neutralization IC50 [1]: 0.065 µg/mL
- pseudovirus neutralization IC80 [1]: 0.763 µg/mL
- Kd (SARS-CoV-2 NTD WA-1): 104 nM

B2: ShAb06H02K (ShAb06Hole-02Knob) (bispecific antibody, V domains shown)
V domain 1: B1 V domain 2
V domain 2: ARVDQTPQTITKETGESLTINCVLRDSNCALASTDWYRKKSGSTNEESISKGGRYVETVNSGSKSFSLRINDLTVEDSGTYRCNAWDSWETRQLKCDYDVYGGGTVVTVNS
- pseudovirus neutralization IC50 [1]: 0.03 µg/mL
- pseudovirus neutralization IC80 [1]: 0.206 µg/mL
- Kd (SARS-CoV-2 NTD WA-1): 74.6 nM
- koff (SARS-CoV-2 NTD WA-1): 0.0085 s⁻¹
- kon (SARS-CoV-2 NTD WA-1): 114000 M⁻¹ s⁻¹

B3: ShAb01-Foldon (ShAb01 VNAR-KESlinker-Foldon-3c-His8-Strep) (VNAR)
VNAR: B1 V domain 1 with S114K
- pseudovirus neutralization IC50 [2]: 0.31 µg/mL
- pseudovirus neutralization IC50 [1]: 0.309 µg/mL
- pseudovirus neutralization IC80 [1]: 0.488 µg/mL

B4: ShAb31 (MoB5-1D4) single domain VNAR (VNAR)
VNAR: ARVDQTPQTITKETGESLTINCVLRDSNCGVASTDWYRKKSGSTNEESISKGGRYVETVNSRSKSFSLRINDLTVEDSGTYRCNAWDRWETRQLNCDYDVYGGGTVVTVN
- binding result [3]: binds

B5: ShAb02-Foldon (ShAb02 VNAR-KESlinker-Foldon-3c-His8-Strep) (VNAR)
VNAR: B2 V domain 2 with S111K
- pseudovirus neutralization IC50 [2]: < 0.02 µg/mL
- pseudovirus neutralization IC50 [1]: 0.289 µg/mL
- pseudovirus neutralization IC80 [1]: 1.77 µg/mL
